From the supplement of paper PMC12042874
± gives the uncertainty stated by the source.

Test: amyloid nucleation score (Sup35N fusion, yeast selection) (log enrichment); library NNK3; higher = more nucleation; inactive = no reads after selection
How it was run: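 On medium lacking adenine and uracil, psi-negative yeast expressing peptides of 20 random codons fused to Sup35N were grown 7 days at 30°C after a 24-hour induction with 100 μM copper sulfate. Illumina sequencing of input and output plasmid inserts gave the reads, and sequences under 100 input reads were excluded. The nucleation score is the DiMSum log enrichment of output over input reads, centred on the mode score of non-aggregating sequences.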

Substance | amyloid nucleation score
CGRNAAVSNARRCCSSKVCM | inactive
QLLCHYNSSSEFLTQKHRYW | inactive
AEYKNGTLRRRTRRVKSRRI | inactive
GRYLSANLVVKSGCR | inactive
PVNGAVYTKGLTSWLRFIVV | -0.178 ± 0.82
YMESVARNSLRVSDCNAK | 0.7 ± 0.14
IAGKIEIIVVRCYSLVGPCT | 0.305 ± 0.19
SNRKPWARHIVDRACM | -0.922 ± 1.9
VVGLWTNS | inactive
TMIFYYRYRLVCDGLFFCGT | 0.034 ± 0.48
SARRTVYLFQNSHRVHPFLF | inactive
NVILYGKNLS | inactive
SSMICVQFGM | inactive
YMIDPYKEEVLPP | inactive
VLRYWRRLGQYTAGSYPEVL | inactive
FLMCVNFVCCIIMCCGTIWG | inactive
LNGMFG | inactive
KGFSFLRIRRMGLWTVSGYG | inactive
IMTVSLGGRNSDSDNLSCLD | inactive
RITKRRHSVIPCP | inactive
VHGYAAFLRRWWEQMNFSVR | inactive
IPEYYKIRWRYGACRSCIVI | inactive
CYGNSMIGVFRICFHSLVYV | inactive

Substance | amyloid nucleation score
RFSRRYMHGFS | inactive
CEFWNKYSNLWIWGWL | 0.51 ± 0.31
DVGLAVNTSHLWSYT | inactive
GNQAYTVTGGSETVCSDNGC | inactive
NHLGM | inactive
SKPACRRFTLNDQKRKVEWI | inactive
GWSFAWCTRVRVMGKVAVWW | inactive
IIIVILLQNWTSVRAVKPIV | inactive
DRYCLWVRCLVDAFMRPVVG | inactive
VISYYIATGGFIDVFYCCKF | 2.15 ± 0.085
MTRKYQNR | inactive
WSDLRI | inactive
TCCYRYYLLILAVSGVFIDT | inactive
TLSRFPLGNCF | inactive
VFDDY | inactive
KQRVASTTTVAPHPKNKD | inactive
IVSMSCGWFRGYRVDDGYM | 1.38 ± 0.083
YSALNSYSWYVTPFYILYWF | 2.56 ± 0.084
FRVYQNIDTERDSRTSPKES | inactive
RLYDIVCYSTVVL | 1.99 ± 0.074
LSRGFYAS | inactive
ECLKPCSSNCTNRPTARPQC | inactive
LMYAVLGTQTVSLSAFKSR | -0.3 ± 1.1

Substance | amyloid nucleation score
ATCRRFTLVQPSYLVPCEPY | inactive
WYGDNRGIMYVLGSRINWRY | 1.34 ± 0.087
YTKATHSVMFGFTVIVVF | inactive
WYYCRLRACVRH | inactive
ELIMCCHEYSVLAMRLLA | inactive
SGCLFAYSWSGCTLVRYDVF | -0.416 ± 0.45
LWYTSSSRGWPISLSSMW | inactive
FNYRFSLSHKNGFTRVNYGL | inactive
SLVAYLIEGIFNLWEALMDR | inactive
QSFLATSFSFYFLSPGYVNY | inactive
SLNNSMVWKYH | inactive
FRYVIVYKRSSFGYRKCIEC | inactive
HVLGRKLFHGVAVVLFSCEL | inactive
LRLMAGNGSSKVGPIKMPWY | inactive
YIFDMSTGQDSMVY | inactive
HGQFMWLMYYMNILSFLLGF | inactive
TWSRRGSGAPACVVVTWVPA | inactive
KVARIVPRFKRQDYTALILD | inactive
TCLVSNYVAYIWGNEFFAAS | 2.19 ± 0.053
IATLEDFMFPLFWYCIYLTN | inactive
RTRCAPLDMVEL | inactive
RSMSTGNH | inactive
LWVAVYMFGTCWMRDEVDDV | inactive

Substance | amyloid nucleation score
VYCLAECYRIMRYAPFQVV | inactive
FNRGLLNHFFGH | inactive
MMGIGVACYVKCGFFVYNWG | inactive
DSLSGYSVPYWSSFMNPWTN | 0.677 ± 0.24
FFHFSNVCTWVPDYSETSPS | inactive
LFVCRLMENLEGY | inactive
LYEGD | inactive
YSNHLD | inactive
ECELPNAPTCEICKIDSRLG | inactive
NLLDNRIFYHMD | inactive
SSLITFAPIPSLYWDCFSRF | inactive
LKNPARYYYVVQIFMVLSTA | inactive
CEEPFETIS | 0.949 ± 0.25
SFNGMSCLRNNLRWNFNRNA | inactive
WGWPSFTCTWLCRRSSCRWP | inactive
IFVKDFLII | inactive
IFVVSNFISSSMNYRSYCYL | inactive
MLHFG | inactive
MAAFVCSFEFSLGSTCSMGG | inactive
VNYLYPS | inactive
VRMCVIVQVKVCARDMTVST | inactive
SMATNCTDR | inactive
LLRRNINMFSIQFFSRVTWL | -0.141 ± 0.96

Substance | amyloid nucleation score
MNSVHYNDHPHDAVKFTISI | inactive
CTFDWVLITLVEGSRAIW | inactive
YVRWCQWYGETDGPCCRNTV | inactive
IMSSTGIFNLLRAESMCSLF | inactive
KSQYTSASP | inactive
TASCEYFELQPIKNLH | inactive
FYFGTG | inactive
FYGFGGISIRSGVVGIVDMK | inactive
TFLYTFWVLMACSELV | inactive
GICHTFDAGTVFFLFGSWFI | inactive
AEQCEPLWCFWKKRSL | 0.792 ± 0.18
VFCPTWFTMGGVCIAVAHLV | 0.486 ± 0.33
VCCFWVVDIKILFSGLPISS | 2.28 ± 0.069
IKVEATRSAVASLRLHI | inactive
QNHTVHSARWDNGSTANTTT | inactive
IYYPIMCAAVAYLLSSRFRC | inactive
IMSFVS | 0.031 ± 0.43
VLSSWTIK | inactive
RMNQIRLPGRCTY | inactive
DWSYEKWLACSGFYGRRRL | inactive
SMLSMLTLRSLSLTFMKRNQ | 0.626 ± 0.32
VRFNSYAFYITIVGGKHTTT | 2.38 ± 0.059
ESLIGSQGQRSNYNIMGNGW | inactive

Substance | amyloid nucleation score
QCKGCFSPVFKSCFICR | inactive
YMAVKRSWSNSMTMIHLNSV | inactive
GFFLLNSYSNCMFCKLHTGT | 1.97 ± 0.082
LKSSPFNYSVGIS | inactive
KCRGGRETIRLRRSLWVFMV | inactive
DISFLSRSRYRKSHGVVNFS | 0.206 ± 0.43
KDMMWDVSRPYFYLVTYQIG | inactive
CIYGKVFF | 0.309 ± 0.28
IPHAARLCLMWIILWLI | inactive
LMVASISNVQRRIVRVKLCD | inactive
AVVIGDDEVVSDYCLLL | 0.377 ± 0.27
LYVVWYSHPWTEYFACSLVA | inactive
RIMGSPQSDS | inactive
TIGDACFVGKEAWAFANWEY | inactive
VVASDNSTMVENWSFNGKMS | inactive
DLPSMSIVIVIQKLYARVNR | inactive
STYAPWSMHHFLDLYMSNRS | inactive
KRFVFPLLIR | inactive
SRLCARMSSGKTIGYCNLFL | inactive
RSYFGMARGAHFSAHFLLFL | inactive
HWSHNLQFIFFYSYVGLANE | 1.96 ± 0.077
LLLFRGAYRLQISAFCLCTE | inactive
DIRRSYTLVRTGFTV | inactive

Substance | amyloid nucleation score
WLDWSAGHCGYVKLLW | inactive
FRFSR | inactive
TCFLRRFYWRYSGFYATAHY | inactive
DRAGHGSV | inactive
HYSLSQDISDSNGLQLLFLL | 2.1 ± 0.075
WVDGYFNLTENVPAVVGK | inactive
FLNLIYNLGRLWFQQLTRFK | inactive
VCFILFSS | inactive
YRRYWLSGRSFRADFIDNKT | inactive
YWNFYSSNLYWT | inactive
HMCRTSCDRFGAIPNFMHWS | inactive
PYLRT | inactive
YTIYIIIRW | 1.03 ± 0.084
SCAECDMRWHMGGCICFVLG | inactive
HLACLRV | inactive
GATFVRILSRLIRLSFI | inactive
FLSLC | inactive
DLVEVIYSVTSYYPNYLRAK | inactive
QYKLFFYWESMV | inactive
VSANSMFIRGLIDSILAELA | inactive
GRIVMHVICNIFNCNYFGNS | 2.94 ± 0.072
